Measurements reported in patent US20140336113A1 (VANDERBILT UNIVERSITY, published 2014).
Positions of bridges follow the written chain, without caps; N, C: chain ends. No end group written: not given here. *: point of attachment. Biotin = O=C1N[C@H]2[C@H](CS[C@H]2CCCCC(=O)*)N1

Legend:
GAPDH = target: T1, GAPDH (human, UniProt P04406 2-335); assay: pull-down from human Jurkat T cell lysate, immunoblot
T1 construct: Cellular protein control of the pull-down; also called control cytoplasmic marker protein GAPDH; control protein GAPDH
T1 sequence (P04406 2-335 limits assumed): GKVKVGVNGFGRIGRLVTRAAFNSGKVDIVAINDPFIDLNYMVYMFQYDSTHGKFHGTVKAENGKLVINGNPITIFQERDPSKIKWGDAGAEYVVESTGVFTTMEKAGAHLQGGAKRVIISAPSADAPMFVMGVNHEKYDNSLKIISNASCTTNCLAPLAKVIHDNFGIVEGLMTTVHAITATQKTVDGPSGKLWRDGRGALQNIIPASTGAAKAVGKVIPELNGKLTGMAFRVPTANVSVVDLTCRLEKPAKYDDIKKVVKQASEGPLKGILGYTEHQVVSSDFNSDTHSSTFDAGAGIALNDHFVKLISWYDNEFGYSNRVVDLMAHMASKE
Experimental: (§1) Cell-penetrating peptide cSN50.1 (2986 Da) and other peptides listed in Table 1 were synthesized and prepared as previously described (Liu, D., et al., (2009) Mol Ther 17, 796-802). Biotinylated NTM peptides and their constituent modules were prepared in the same manner, with biotin added to the amino terminus at the last step of synthesis. When necessary, a 5-7 hydrophilic amino acid tag was added to peptide modules to facilitate solubility. For i.p. administration, 200 μl aliquots containing 0.4 or 0.7 mg of cSN50.1 in saline was injected at 8 h or 12 h intervals. Alternatively, 10 mg cSN50.1 in 100 μl sterile H₂O was administered subcutaneously from ALZET Osmotic Pumps (1007D) placed aseptically in interscapular areas. A bolus of 0.7 mg cSN50.1 in 100 μl saline was administered i.p. at weekly pump changes to assure steady NTM bioavailability. Dosage schedules were developed based on previous experimental protocols and half-life studies. Control mice received sterile saline in the same volumes as NTM. Importins pull-down assay. Ten nmols of biotinylated NTM peptides or their constituent modules depicted in Table 1 (SN50, cSN50.1, N50, cN50.1, SSHR-1, SSHR-2) were incubated overnight at 4° C. with 1.5 mg of whole cell extract from unstimulated human Jurkat T cells or serum-starved human HepG2 cells lysed in binding buffer (10 mM HEPES at pH 7.9, 150 mM NaCl, 10 mM KCl, 2.5 mM MgCl₂, 1 mM EGTA, 1 mM DTT, 0.1% NP-40, 1% protease inhibitor cocktail). Lysate was cleared by centrifugation (16,000×g for 30 min at 4° C.) and transferred to a fresh tube containing high capacity Neutravidin beads (Thermo Scientific). After 4 h, beads were separated from lysate/peptide mixture by centrifugation (30 s at 1,000×g) and washed 3 times with binding buffer and 2 times with PBS. Beads were boiled for 10 min in SDS loading buffer, and protein content was analyzed by immunoblotting with a panel of anti-importins alpha and beta antibodies and anti-GAPDH (Abcam) as a cellular protein control.

importin beta = target: T2, importin beta (human, UniProt Q14974 1-876); assay: as above
T2 construct: also called imp beta; nuclear transport shuttle for SREBPs
T2 sequence (Q14974 whole entry): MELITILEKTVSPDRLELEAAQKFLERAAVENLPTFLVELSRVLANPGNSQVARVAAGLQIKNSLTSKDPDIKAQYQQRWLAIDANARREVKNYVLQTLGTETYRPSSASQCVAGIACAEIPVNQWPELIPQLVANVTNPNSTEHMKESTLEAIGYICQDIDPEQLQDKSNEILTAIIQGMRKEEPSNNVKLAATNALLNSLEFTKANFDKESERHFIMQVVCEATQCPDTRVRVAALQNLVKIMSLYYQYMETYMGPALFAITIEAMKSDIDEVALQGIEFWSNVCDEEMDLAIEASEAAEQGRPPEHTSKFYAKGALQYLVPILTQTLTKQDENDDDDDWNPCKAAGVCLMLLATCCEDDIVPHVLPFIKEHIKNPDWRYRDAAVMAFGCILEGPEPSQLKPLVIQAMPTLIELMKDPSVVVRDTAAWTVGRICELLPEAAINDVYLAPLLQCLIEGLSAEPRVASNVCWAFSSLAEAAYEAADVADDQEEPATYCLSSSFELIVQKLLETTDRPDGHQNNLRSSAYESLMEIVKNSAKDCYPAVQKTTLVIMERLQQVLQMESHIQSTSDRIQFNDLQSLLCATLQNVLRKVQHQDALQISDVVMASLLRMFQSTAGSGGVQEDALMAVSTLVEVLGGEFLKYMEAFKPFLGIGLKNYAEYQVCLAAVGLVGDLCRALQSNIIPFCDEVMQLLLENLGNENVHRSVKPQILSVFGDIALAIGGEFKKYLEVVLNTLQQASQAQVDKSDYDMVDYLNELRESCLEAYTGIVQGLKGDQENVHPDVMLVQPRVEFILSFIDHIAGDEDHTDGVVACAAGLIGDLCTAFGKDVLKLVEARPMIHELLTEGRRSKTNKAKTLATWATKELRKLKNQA
Experimental: as §1

importin alpha 5 = target: T3, importin alpha 5 (human, UniProt P52294 1-538); assay: pull-down from cell lysate, immunoblot
T3 construct: also called importins alpha; importins/karyopherins alpha

importin alpha 1 = importin alpha 1 (human, UniProt P52292 2-529); assay: pull-down from cell lysate, immunoblot

Row | Binder | binding result (GAPDH) | binding result (importin beta) | further results
1 | Biotin-CVQRKRQKLMPC (disulfide 1-12 (inferred), NLS segment of cSN50.1, no SSHR) [biotinylated cN50.1 peptide] | – | no binding | –
2 | Biotin-AAVALLPAVLLALLAPCVQRKRQKLMPC (disulfide 17-28 (inferred), the N-biotinylated version was used in the pull-down assays; also called NTM; full-length biotinylated NTM) [biotinylated cSN50.1 peptide] | no binding | – | –
3 | Biotin-AAVALLPAVLLALLAPCVQRDEQKLMPC (disulfide 17-28 (inferred), cSN50.1 with lysine 21 replaced by aspartic acid and arginine 22 replaced by glutamic acid) [biotinylated cSN50.1 Beta peptide] | – | – | binding result (importin alpha 5): no binding; binding result (importin alpha 1): no binding

Second part, led by results:

Row | binding result (GAPDH) | binding result (importin beta) | Binder | further results
4 | no binding | – | Biotin-AAVALLPAVLLALLAPVQRKRQKLMP (also called NTM; full-length biotinylated NTM) [biotinylated SN50 peptide] | –
5 | – | no binding | Biotin-VQRKRQKLMP (NLS segment of SN50, no SSHR) [biotinylated N50 peptide] | –
